Protein production data for 18 sequences are collected here from a protein production outcome set (Wang et al. 2014).

This data set in a line: label from the status in PepcDB records.
“MLLFEQPVDLEKNNEDDTNIKPFAISRHFLLKLLLCGIILIELLLYSKCPKPIDNGPRTIANRSNTYFNGTHDFKTLTILISIDGFHPRLIDAKYTPFLYNLHNLRSPYDMNITTAPYMIPSFPTQTFPNHWSMVTGKYPIEHGIVSNIFWDNFTSSEFRPNNLDARIWSNTADPIWQLLQTESQGEYKVATHMWPGSEVVYEDHGDVPRERMPFYFGKFNQWEKLQDKLAQIFRYIDMPQLKDRPELVISYIPNVDSYGHSFGYDLRDKRLQKLIGEVDGFFLDLIEGLQKRNLLKISNVMIVSDHGMSNVNANDGEHVVVWERVFPADAMSAFISHLYNEGPMMMVCLKNPRDKQWICDLIEAQLEKAYGDEISRKFHVILKEDFDPSWKYFQYDNRKHRYDDRVGDIWILADEYYAIVKEMGDVPIGIMGTHGYNFNNCSDMASIFIGMGPMFNNEVVPPFENIEVYNMLIKASALLGEEKTKKEKSLLQ”: the protein production result is on record as “failed”.
For “MLLHNGPMKLAEALIERADLQKRAAQLEERLVQNMQVQEGEVPAEDPRELLNELLTVSSALEVLLPRIHRANLSATLPSGQTLTDALTRRDLLDARLKALRRAATAAAERQTRYSNSELRMVAVIPPSELQKLADVMAKERRELEVQIQQANWQTDLPGSGALEHHHHHH” the value was “not failed”; for “MLLQKSKVLVLNASYEPLSICDARNAVLLLFCGKAMMVASHPEHRIRTVTENFPLPSIVRLMVYVRIDYRGAVLNRKNLFRRDGFRCQYCGCKDGSLTVDHVMPKSRGGEDTWENLITACKSCNTKKGNRTPSEAGMAMLNKPCRPSNITLMRQHYRSISDEWKPYLFMS”, “failed”; for “MLLRLPLLDLTPLPAPFYELAKDVEQSLITDPEKAREVAAKLHAATDTAQGLHRAYAELLLARTLLSTRQWQAALESFEKARKSLLALERAALVAHAVLGRVYILLGTGQYAEASAEAAELEAQLANGPVQAMEIRALALNAIAYAEYAQGRPVQAINHLKEALKLREQLSPIIIAACLCNLGISNIEQGNYREAIYWLMEAYRAHPDSNEDRQLELATLTNLAYAHYLAGDLSLATEITQKAYAAAGEWQSYKVRAYSALNLGTYNTELQQTGRARSYLQEALVLSQTQPELTADAVLRASILDSLGTLEHQDGNSESALELYTRAREIAQRDELPAVEALTQLNIGRMLGQLGRPEARAELERALELAVAACLFKEQFEAHTALAELTAAAADWRSAYRHQQELTRLKLHLLEGEHERQRKELRAELDLEQMRREGELSRERLKIEVAARERAEAETLERTQQLAQAQREVVLCLALAAEYRDSITGEHIKRVGTFAAHIALALGWSQADAELLMLASRLHDVGKIGIPDSILLKPGKLTEVEYVQMQAHTLIGSQILGQGNSALLKLAQTIALSHHERWNGEGYPYGLHGEAIPLAGRIVAVADVYDALIQRRPYKAAWTPEQAAAELSAQAGRHFDPALVEVALRILNDVHYSVDELKELGPPTVGPAAASLERELALRTQELQEARKNAGELLQLALSDSLTGLHNRRALELDLEQRIYPGAVDFYMTSLDLDSLKEINDSQGHQYGDQLLRQFALCLRQSCAAGKTYRIGGDEFAVLWNLDVTEQDIVQVLRRLPQNLRVTGQPGISFSYGSACYNRDAATAGDLLRVSDARMYRMKVGRRGEETDSIWFKEDH”, “failed”.
On to “MLLSIITVAFRNLEGIVKTHASLAHLAQVEDISFEWIVVDGGSNDGTREYLENLNGIFNLRFVSEPDNGIYDAMNKGIAMAQGKFALFLNSGDIFHQNAANFVRKLKMQKDNVMITGDALLDFGDGHKIKRSAKPGWYIYHSLPASHQAIFFPVSGLKKWRYDLEYKVSSDYALAAKMYKAGYAFKKLNGLVSEFSMGGVSTTNNMELCADAKKVQRQILHVPGFWAELSWHLRQRTTSKTKALYNKV”, for which the protein production entry is reported as “failed”.
With “MLLTLEQELFTQFGYAAFKPGQKEVITNLLDGMNTLAVLPTGTGKSLCYQFVGQKLEGLTVIVSPLLSLMEDQMRQLQRQGIKGAVALNSTLQYSEKRYILAKMFQYDYLFLSPEMLLQQEVLSVLQRQKIALFVVDEAHCVYQWGVDFRPEYSKLDLVQKQLDFPLTLALTATATPVVQHAIIKQLFSHGSYQEVLSSVNRKNIGLFVKETSEKEEVLLDYLSKTAGKIIIYCATRNKTEQISQLIQAKTSFKVAYYHGGLEASERSRLQEQFIDNQIDILCATNAFGMGIDKPDVRGVIHFDLPDSLENYLQEIGRAGRDGQKSWALLLYKKGDEFIHRFFLEETRANRATLKSLIEGEEQAGLLENATELQQKWVQGYLAKDYSFEELEHRLEEKEKDRQAQLRGMLTYIETTTCRRTLIQTYFQEPIVKQSPETCCDNCALFFDIYQDSIVKSNKTSNQNEEGWRSKFLKLFKERD”, the protein production result is “failed”.
For “MLMKVAEFERLFRQAAGLDVDKNDLKRVSDFLRNKLYDLLAVAERNAKYNGRDLIFEPDLPIAKGLQETLQEFRRMDTALELKPVLDALAALPPLDLEVAEDVRNLLPELAGALVVAYARVLKELDPALKNPQTEHHERAERVFNLLL”, the protein production result is listed as “not failed”.
Take “MLMMLKSLRVNRILKLLLLAIFSSFMIIACGDRLTQYTVSQKISPSTECQVIQHQVGETQVCGQPQKIVALGPNVLEILLALDVQPVGFADHVPLHQGNYDNPSQQIPYLGERVTGELINLGLAYTPSIEALLKIKPDLIIGNELNRSQYEMLSKIAPTLLFPRFDAQPNLLAISKILGRSEKAKKILADSDQRLAIAQKALSDIVANHPQVLMLVSLGQSISEQLRFPRRDSFCDSLVTNLGFKLMSPSSLVPADKSVPPPLSIETLPQFNSADSIILLGANFSQVQLSDDKYFEPQMQKLKQQWSENAIAQSLTASKEGRVYFIPAYLCLGLPGPIGTELYLQELQKQLLSPQGK”: the protein production entry is on record as “failed”.
Turning to “MLMNLPEILKNQKARARKFKPVKMSKRTELWYRQQLKQFVKMMTNDVERALQQPQGSFFMDDAKGFQAISAKALMKVLEKYEKSDRTSQAENIANGFVSRGDAQNHAEVSTNLKNQTGIDLSAYLRNSPNITEKVNALTAGNIQLIKSIRSQYLDKVQNAVMQAMVRGSLNKDLAAQIKDLGKTTEKRAMFIARDQSSKLNAALTQARHEEVGIKKYMWSASLDERVRESHAEKDGQIFEYANPPADTDHPGHDFNCRCVQIPVLDNNEQIVKNSPIVSQQEKQQMRSEWSDDFPDTIIDRKLGDATSHPLYENAKKGSIEDAYQLAKDLVTDDAVNKLKQLVGNKNAILIPVHAEEAVGQNMIPVAIATVLSKKLHIPVDLSIVQATKVSRTGGDGWHRLVYSPAFDGIVPKDKYAIILDDTQTQGGTLASLKGYIIKEKLLHLML”, the protein production result is “failed”.
For the sequence “MLMRTTRKISITDYGVYYYKTCRSIFDLLHESAEVASNVIHNPEGVLNISMPRSFGIFGFLPTLEKFYRIHPKIRVDVSISDSLVDFSENRFDAAVRLGVLSDSSLVARPLRPYKLVLCASPAYLARKGRPATPKDLIVHDCIATYFDEYRTAWNTLQNTWEFLCADGEFIKVSVPARMQVNDAQGVCIMVLSGQGIALLPEIIVSAHLTEGRLIELLPDYQIPSRPMSLVYRKNSLMPFKLKAFIGFLMDEFS”, the protein production result is reported as “failed”.
For “MLNLQRMSLFIAVVDSGSFTAAAAASGQTKAVVSFNIRQLEKELGVTLLLRSTRRLTLTDAGVLFYQKGVNLLNAAKNLQDEVRASHSGLGGELRITTTSEFGEQVVIPVLAQFSQRHPDLRIRHMSSSHHADLIAERFDVAIRLGSLADSRYRAALISRFTILPVAAPQWLARNPVSSLESLAQAEWIIHERLPTPLRWTVTNNHGQHSRLEISKAGKISVDSARSLMAFALAGSGVALLPQWLVNTALEDGTLIHLLPDYHFPRQGIYAVYPDARHVSTKVRAFIDFLRSQWDCGEHAPSS” the value was “failed”.
For “MLNQFPKLRLTPFTTGIVAIFLFSLVIRFWNLGQFNQLVFDEVYYAKFASDYWLGNDFFPSHPPLSHYLIALAMGLGQVFPVNPEQVNDLTGAVRSTWSYRWLNALTGATIPLLLGAIAYLLTQRRLVTLLTMGLVALDGLFLVESRYALNNIYLVFFGLLGQALVLWHLRQEKLWQLILGGISLACAGSVKWNGFAFLLGVYLLWAIAWVKPFFNQGWTKGERQANSLQLLDRDGENNQGFLSRWLIISPLKFAIWLVLVPVITYSVIWIPHLLMNGEYASLEGFWRIQRETWQYHRRVGNSPDIHPYCSPWYSWLLMARPIAYFYQKSGQFGLINDVHAMANPILLWFSTGAMALLTGTVIWQKIRQFSSQTINAPLRGITLYIEVNYAVNLLPWLGISRCTFFYHYLPAYAFSILALALILETLLDSPRHSHNVIAWAVLTLVAIAFWYWLPVFLGLPLTPRGFALRMLFPSWI”, the protein production result was “failed”.
With “MLNSRRIVVVLPAYNAEKTLEMTYAEIPFEHVDHVLLVDDASRDRTAQVAERLGIKTIVHDRNKGYGANQKTCYRAALDLGADIVIMVHPDYQYTPKLITAMAAMIAYGEFDAVLGSRILGIGALKGGMPLYKYVANRVLTLVENLLLSHKLSEYHTGYRAFSRQVLEQLPLDANGDDFVFDNQMLAQIIWHGYRIGELSCPTKYFEDASSINFRRSVIYGLGVLGTALEFRLARMGLIRSGRFTPRNDQAAAQLEHHHHHH”, the protein production entry is “not failed”.
For “MLNTSDIGKVFPSVTAVVEKGRLRFFAKAIGENNPIYTDEAAAKDAGYESLPMPPTFFFSLKMDVPNPFENYEKVGASLAKILHANQAFVYHQSVVAGDSLTFESHIADIYDKKAGALEFLVEKTKVSNQRGQHVADMTTTLVVRNLEHHHHHH” the value was “failed”; for “MLPADGIVCFPGQTWEKVLSKVKKAVVFMDDRCSESLHWNGGAALLFEAGARNIKQFSSFEAGAQNEPKAVFVVSTVLKGRTADIIKDIISLSHFQYCVVFTTVPHSIHLLANNVNADLEGNPVFEQFEEKLCEWMGDMNYTAEVMHAPVVFAPLTEHLHLLPAFSNLFPLLDVDLESINEKRPEKKRFGSLMDMDVHSLPPGLQIQIKTLALTLNGLFEFISTREESFSVGPMSRLIATELANLPQAKNRRKTAPNKASVVFVDRTLDLTGAVGHHGDNLAEKILSVLPQLPGHVTDVQVDMLELTHLKPTTDTKGILAPGCLAQNQSATAKLLWETMLVAKQKEAVIEVRRQLVEAASKENLPIKMSLGRVTAEQLCSYVQLFRDSWGALESHSGVLQLGLAAAQALRHPALQRWDACLAFERLLLQALGDSDLAGVLKQLLPLIKSSESGTGSDLSMDDLLVLLVYVYSVAKEACSGGSEEEKQVEKVEQELIGALTLRLTRETTLSPLVQEVTGVSCPEELTMECAHSVLESMFGTLRGVARARDHLKNFSSVFTPGDGAHQDQHRYILILMIQDQHQ”, “failed”; for “MLPFANYYISSPSVSEKNAINNNVNKRRKKKRAMMVYGGGGGGDDLAVVKAAAWAWYLRKEGKPIMREFDVTRAQRIPRPSRYKIEATKNMILSENRVLAENRVSSTKSPLWYTNYQFRGDQETYYSRLLDTYETKNISKRLNIDDSSFSTSLSSVLKHNGDDHHNHNRNDDYGFDDHGLLKKRNGSDSNTTTRSKTNNDKSYNGGFMKKVSKRSLWKGMIVMGPGSTVCGRSDDVASQAGRRTVKVAVAAEALVRSAASGSGKTQSGHC”, “failed”.
For the sequence “MLPNLNRIPQVEQYVLDYLDDLQCQHFEGDIATNYADRLSLATDNSVYQQLPQAILFPKTVADIVRITKLANLPEYQSISFTPRGGGTGTNGQSINNNIIVDLSRHMTA”, the protein production entry was “failed”.
“MLPPYNYMDNGTLKGISIDLLEAITEKMGKKVTREEIHLVSWTEGYQAALTRNNTVLFVTARTPEREQSFKWVGPIYSDKYVLFAKRDPGVTIDGPEDLKEYRIGVISDDLEHHHHHH”: the protein production entry was “failed”.
